Results on 2 molecules are retold here after US20150125397A1, “DUAL SPECIFIC BINDING PROTEINS DIRECTED AGAINST IMMUNE CELL RECEPTORS AND AUTOANTIGENS” (ABBVIE INC., priority 2013, published 2015).

For one assay, the system named is DNA. Put plainly: Antinuclear antibody (ANA) test. Conditions: for ANA score / ANA score, relative result: ANA staining at 10 μg/ml. Also noted: key to ANA score, relative result: (X)-(XXX) indicates relative results; (XX): (X)-(XXX) indicates relative results; (X)-(XXX) indicates relative results. Format: binding. The procedure:
The cloned BWR4 and PA4 antibodies as well as the DVD-Ig proteins were tested for ANA reactivity using the ANA test kit. Briefly, the DVD-Ig proteins and antibodies were diluted to […] in blocking buffer (1% BSA in PBS). The DVD-Ig proteins and antibodies were added to separate wells of an ANA slide at 50 μl/well and incubated in a moist chamber for 2 hours at room temperature (RT). The wells were then washed 3× with PBS. To detect bound antibodies, Alexa Fluor 488 conjugated goat α-human IgG (α-hIgG) was then added at a dilution of 1:1,000 and the slide incubated in a moist chamber for 1 hour. Unbound detecting antibody was removed by immersing the slide in a jar containing PBS and incubating for 10 minutes at RT with gentle rocking. The prior step was repeated 2× and 10 μl of Prolong® Gold Antifade was added to each well and a 24 mm×60 mm #1 cover glass seated on top. The covered slide was incubated overnight at RT and then sealed by applying clear nail polish to the edges. Binding of the DVD-Ig proteins and antibodies to the slides was assessed by fluorescence microscopy.
DVD-Ig proteins DVD3751-DVD3760 were characterized by antinuclear antibody (ANA) staining at 10 μg/ml according to the method of Example 2.4.
ANA: HEp-2 human tissue culture substrate slides were incubated with 5 μg/ml of the anti-DNA-IgG2a or the DVD-Ig™ binding protein for 2 hours at RT. The slides were washed and bound antibodies were detected with Alexa-488 goat anti-human antibody or DyLight 488 goat anti-mouse antibody.

For another assay, the system named is AM14 WT B cells. Put plainly: [3H]thymidine incorporation, BCR/TLR9 stimulation of AM14 WT B cells. Format: cell-based, mouse. Also noted: key to 3H incorporation AM14 WT, relative result: (X)-(XXX) indicates relative results; (XX): (X)-(XXX) indicates relative results; (X)-(XXX) indicates relative results; level of 3H incorporation / 3H incorporation AM14 WT: dose or concentration left out as unconfirmed. Conditions: for 3H incorporation AM14 WT: 24 hours, then 6 hours pulse. From the text: The AM14 B cell receptor (BCR) transgenic mouse has been described previously (Sweet et al. (2010) Autoimmun 43(8): 607-18). Briefly, AM14 is a BCR comprising the AM14 heavy chain and the Vk8 light chain that recognizes murine IgG2a (mIgG2a) of the “a” allotype. Between 95-98% of B cells in a mouse positive for the AM14 heavy chain and Vk8 light chain express the AM14 BCR. To generate AM14 B cells that are deficient in TLR9, TLR7 or FcγRIIB, the AM14 and Vk8 genes were bred to the appropriate knock out mice.
Primary murine B cells were purified by positive selection using BD Imag™ CD45R/B220 magnetic particles (BD Biosciences, San Jose, Calif.). Briefly, B cells were cultured in RPMI containing, pencillin-streptomycin, β-mercaptoethanol, and 5% heat-inactivated fetal calf serum (FCS) in 96 well flat bottom plates at a density of 4×10^5 cells/well. For stimulation through the BCR and TLR9, B cells were treated with a titration of 0.3 μg/ml-0.03 μg/ml of PA4 or 5 μg/ml to 0.15 μg/ml of a DVD-Ig protein (DVD3751, DVD3752, DVD3754, DVD3755, DVD3759 and DVD3760), unless otherwise noted. Cells were also treated with 1 μg/ml 1826, an experimental ligand for TLR9, as a control. After 24 hours, the cells were pulsed for 6 hours with [3H]thymidine (Perkin Elmer, Waltham Mass.). Incorporation of [3H]thymidine was quantified via a liquid scintillation beta counter (Trilux 1450 MicroBeta, PerkinElmer) according to standard methods.
DVD-Ig proteins DVD3751-DVD3760 were characterized by ^3H incorporation at […] according to the method of Example 2.6.

B1: DVD3754: DVD-Ig: VD1 DNA(PA4), SL linker, VD2 mIgM (B7.6); heavy SEQ ID NO 54, light 55 (antibody)
heavy: EVQLVESGGGLVKPGGSLKLSCVASGFTFSTYAMSWVRQTPTKRLEWVATISRGGVSTYYPDTVKGRFTISRDNAKNTLYLQMSSLRSEDTAMYYCARPPTIVTTWFAYWGQGTLVTVSSASTKGPQVQLKESGPGLVKPSLTLSLTCTVSGFSLNGYGVIWVRQPPGKGLEWMGVIWGNGNTNYNSTLKSRLSISRDTSKSQVFLKMNNLQTEDTAMYFCARSENYYSSPGYFAYWGQGTLVTVSS
light: DVVMTQTPLSLPVSLGDQASISCRSSQSLVHSNGNTYLHWYLQKPGQSPKLLIYKVSNRFSGVPDRFSGSGSGTDFTLKISRVEAEDLGAYFCSQSTHVPYTFGGPTRLEIKRTVAAPSVFIFPPNTVMTQSPTSMFISVGDRVTMNCKASQNVGSDVDWYQQKTGQSPKLLISGTSNRYTGVPDRFTGSGSGTDFTLTISNMQAEDLAVYYCLQYNYNPTFGAGTKLELKR
In the case of B1, in the assay on DNA (10 μg/ml, among DVD3751-DVD3760), the “level of ANA staining” value is reported as “highest level of staining”. For the same molecule, in the assay with DNA, the ANA score was 4.5 and the “ANA score, relative result” value was “(XXX)”. In addition, the “ANA, immunofluorescent HEp-2 staining” value with DNA (Example 6, 5 μg/ml, FIG. 8C) is “high ANA score”. In addition, in the assay with AM14 WT B cells, the “3H incorporation AM14 WT, relative result” value is listed as “(XXX)” and the “3H incorporation AM14 WT” value was “(35214)”. The “level of 3H incorporation” value with AM14 WT B cells (among DVD3751-DVD3760) is on record as “highest level of ^3H incorporation”.

B2: DVD3759: DVD-Ig: VD1 mIgM (B7.6), SL linker, VD2 DNA(PA4); heavy SEQ ID NO 64, light 65 (antibody)
heavy: QVQLKESGPGLVKPSLTLSLTCTVSGFSLNGYGVIWVRQPPGKGLEWMGVIWGNGNTNYNSTLKSRLSISRDTSKSQVFLKMNNLQTEDTAMYFCARSENYYSSPGYFAYWGQGTLVTVSSASTKGPEVQLVESGGGLVKPGGSLKLSCVASGFTFSTYAMSWVRQTPTKRLEWVATISRGGVSTYYPDTVKGRFTISRDNAKNTLYLQMSSLRSEDTAMYYCARPPTIVTTWFAYWGQGTLVTVSS
light: NTVMTQSPTSMFISVGDRVTMNCKASQNVGSDVDWYQQKTGQSPKLLISGTSNRYTGVPDRFTGSGSGTDFTLTISNMQAEDLAVYYCLQYNYNPTFGAGTKLELKRTVAAPSVFIFPPDVVMTQTPLSLPVSLGDQASISCRSSQSLVHSNGNTYLHWYLQKPGQSPKLLIYKVSNRFSGVPDRFSGSGSGTDFTLKISRVEAEDLGAYFCSQSTHVPYTFGGPTRLEIKR
On to B2, for which, in the assay with DNA, the ANA score came out at 3.5 and the “ANA score, relative result” value was “(XX)”. Moreover, in the assay on AM14 WT B cells, the “3H incorporation AM14 WT, relative result” value is on record as “(XX)” and the “3H incorporation AM14 WT” value is “(18554)”.
